Test results from PMC7689096, “Cyclizing Painkillers: Development of Backbone-Cyclic TAPS Analogs” (Frontiers in Chemistry, 2020).
Numbered stars: 1 amine (or outer) side, 2 acyl side, 3 side chain; on linkers, the order of the positions; unused ones are H or OH. Bridge positions count the residues as written; N and C are the ends. Square brackets hold non-standard residues; d marks the D form. Ends that are not written are not given here. N(6-aminohexyl)Gly = O=C(CN(CCCCCCN[*:3])[*:1])[*:2]; NGly(3-aminopropyl) = O=C(CN(CCCN[*:3])[*:1])[*:2]; CO = O=C([*:1])[*:2]

Assays:
[1] = Caco-2 permeability assay; conditions: human
mice = test: Mouse open field test (locomotor adverse effect); conditions: 5 mg/kg IP
Experimental: In the mouse open field test (OF test), the distance and speed the animal moves over a 5-min time period is recorded, giving an indication as to whether a medication administered affected its locomotor activity. TAPS c(2-6) (5 or 15 mg/kg) was administered via IP administration and compared to morphine (5 mg/kg) and vehicle (PBS).
Male ICR mice (Harlan, Israel) 7 weeks of age (25–27) were used for all pharmacodynamic experiments after 5-day acclimation to laboratory conditions. Animals were allowed free access to food (standard commercial, sterile rodent diet) and water throughout the experiments and kept in automatically controlled environmental conditions for temperature and humidity levels in a 12-h dark-light cycle.
Animals were placed in the OF apparatus for a period of 5 min. The apparatus utilizes computerized monitoring which measures the speed and distance the animal walks during the measurement period. […] Baseline measurements were taken 1 day before initiation of the experiments and again at 0.5, 1.5, 3, and 5 h post injection.

[2] = target: T1, δ (DOP, OPRD2) opioid receptor (Mus musculus, UniProt P32300); test: DOP opioid receptor functional agonism in NG-10815 cells; format: cell-based, rat; conditions: At 10^−6 M, percent of control specific agonist response
T1 construct: NG-10815 cells which express significant endogenous levels of δ opioid receptors; host or cells: NG-10815 (NG108-15) mouse N18TG2 neuroblastoma x rat C6-BU-1 glioma hybrid cells
Experimental: (§1) Peptides were tested for μ (MOP, OPRM1) and δ (DOP, OPRD2) opioid receptor activation functional agonism and antagonism using CHO cells expressing human recombinant μ receptors and NG-10815 cells which express significant endogenous levels of δ opioid receptors. The cultures were incubated for 10 min at 37°C followed by impedance measurements of CHO cells and cAMP was assayed by the HTRF method using NG-10815 cells, according to CEREP standard assay protocols. The respective reference, non-peptide small molecules were tested concurrently with the TAPS analogs. The agonist compounds were: DPDPE (selective agonist of DOP receptor) and DAMGO (high MOP receptor specificity) and the antagonist compounds were: Naltrindole (selective DOP receptor antagonist) and CTOP (MOP receptor antagonist). […] The results are expressed as a percentage of respective control-specific response. […] These findings indicate that TAPS cyclic peptides are MOP selective full agonists. […] The cyclic TAPS peptide had lower activity than the linear parent TAPS peptide (90 ± 5%) – a finding that can be attributed to their restricted conformation relative to the flexible linear peptide conformation.
Evaluation of the Agonist Activity of Compounds at the Rat delta2 Receptor Endogenously Expressed in NG-10815 Cells, Determined by Measuring Their Effects on Impedance Modulation Using the CellKey (CDS) Detection Method
Cells are seeded onto 96-well plate coated with fibronectin at 2 × 10^5 cells/well in HBSS buffer (Invitrogen) + 20 mM HEPES (Invitrogen) with 0.1% BSA and allowed to equilibrate for 60 min at 37°C before the start of the experiment. Plates are placed onto the system and measurements are made at a temperature of 37°C. […] Impedance measurements are monitored for 10 min after ligand addition. The standard reference agonist is DPDPE, which is tested in each experiment at several concentrations to generate a concentration-response curve from which its EC50 value is calculated.
The respective reference, non-peptide small molecules were tested concurrently with the TAPS analogs; Agonist compounds DPDPE ([D-Pen2,D-Pen5]enkephalin), selective agonist of DOP receptor at 2 × 10^−9 M and DAMGO ([D-Ala2, N-MePhe4, Gly-ol] enkephalin), high MOP specificity at 2.5 × 10^−9 M; Antagonist compounds: naltrindole 7-(cyclopropylmethyl)-6,7-dehydro-4,5α-epoxy-3,14-dihydroxy-6,7-2′,3′-indolomorphinan hydrochloride, selective DOP antagonist, 5 × 10^−10 M and CTOP (D-Phe-Cys-Tyr-D-Trp-Orn-Thr-Pen-Thr-NH2), MOP antagonist at 3.4 × 10^−7 M. Depending on the assay volume and solvent tolerance, the stock solutions were diluted to [100×], [333×] or [1,000×] in 100% DMEM solvent, then either added directly or further diluted to [10×] or [5×] in H2O or Hank's balanced salt solution (HBSS) before addition to the assay well (final solvent concentration kept constant). The cultures were incubated for 10 min at 37°C followed by impedance measurements using cellular dielectric spectroscopy of CHO cells and cAMP was assayed by homogeneous time resolved fluorescence (HTRF) method using NG-10815 cells, according to CEREP standard assay protocols (https://euroscreenfast.com/assays/opioid-orl1-camp-fast-0360c; https://euroscreenfast.com/assays/opioid-op1-delta-camp-fast-0379c). […]

[3] = target: T1, δ (DOP, OPRD2) opioid receptor; test: DOP opioid receptor functional antagonism in NG-10815 cells; format: cell-based, rat; conditions: Between 10^−9-10^−6 M, percent inhibition of control specific agonist response
Experimental: as §1
(§2) The respective reference, non-peptide small molecules were tested concurrently with the TAPS analogs; Agonist compounds DPDPE ([D-Pen2,D-Pen5]enkephalin), selective agonist of DOP receptor at 2 × 10^−9 M and DAMGO ([D-Ala2, N-MePhe4, Gly-ol] enkephalin), high MOP specificity at 2.5 × 10^−9 M; Antagonist compounds: naltrindole 7-(cyclopropylmethyl)-6,7-dehydro-4,5α-epoxy-3,14-dihydroxy-6,7-2′,3′-indolomorphinan hydrochloride, selective DOP antagonist, 5 × 10^−10 M and CTOP (D-Phe-Cys-Tyr-D-Trp-Orn-Thr-Pen-Thr-NH2), MOP antagonist at 3.4 × 10^−7 M. Depending on the assay volume and solvent tolerance, the stock solutions were diluted to [100×], [333×] or [1,000×] in 100% DMEM solvent, then either added directly or further diluted to [10×] or [5×] in H2O or Hank's balanced salt solution (HBSS) before addition to the assay well (final solvent concentration kept constant). The cultures were incubated for 10 min at 37°C followed by impedance measurements using cellular dielectric spectroscopy of CHO cells and cAMP was assayed by homogeneous time resolved fluorescence (HTRF) method using NG-10815 cells, according to CEREP standard assay protocols (https://euroscreenfast.com/assays/opioid-orl1-camp-fast-0360c; https://euroscreenfast.com/assays/opioid-op1-delta-camp-fast-0379c). The results (mean of three experiments) are expressed as a percent of control specific agonist response [(measured TAPS specific response/control specific agonist response) × 100] and as a percent inhibition of control specific agonist response [100 – (measured TAPS specific response/control specific agonist response) × 100] obtained in the presence of the TAPS compounds. Results showing a stimulation or an inhibition lower than 25% were considered not significant and mostly attributable to variability of the signal around the control level. Results showing a stimulation or an inhibition higher than 50% were considered to represent significant effects of the TAPS compounds.

[4] = target: T2, human recombinant μ (MOP, OPRM1) receptor (Homo sapiens, UniProt P35372); test: MOP opioid receptor functional agonism in CHO cells expressing human recombinant μ receptors; format: cell-based; conditions: At 10^−6 M, percent of control specific agonist response, values lower than 25% not significant
T2 construct: host or cells: CHO cells
Experimental: as §1
Evaluation of the Agonist Activity of Compounds at the Human μ Receptor in Transfected CHO Cells, Determined by Measuring Their Effects on cAMP modulation Using the HTRF Detection Method
Thereafter, the adenylyl cyclase activator NKH 477 is added at a final concentration of […]. Following 10 min incubation at 37°C, the cells are lysed and the fluorescence acceptor (D2-labeled cAMP) and fluorescence donor (anti-cAMP antibody labeled with europium cryptate) are added. After 60 min at room temperature, the fluorescence transfer is measured at lex = 337 nm and lem = 620 and 665 nm using a microplate reader (Rubystar, BMG). The cAMP concentration is determined by dividing the signal measured at 665 nm by that measured at 620 nm (ratio). The results are expressed as a percent of the control response to 1 μM DAMGO. The standard reference agonist is DAMGO, which is tested in each experiment at several concentrations to generate a concentration-response curve from which its EC50 value is calculated.
as §2, with “Results showing a stimulation or an inhibition lower than 25% were considered not significant and mostly attributable to variability of the signal around the control level. Results showing a stimulation or an inhibition higher than 50% were considered to represent significant effects of the TAPS compounds.” left out

[5] = target: T2, human recombinant μ (MOP, OPRM1) receptor; test: MOP opioid receptor functional antagonism in CHO cells expressing human recombinant μ receptors; format: cell-based; conditions: Between 10^−9-10^−6 M, percent inhibition of control specific agonist response, values lower than 25% not significant
Experimental: as §1, §2

T1 sequence (P32300 whole entry): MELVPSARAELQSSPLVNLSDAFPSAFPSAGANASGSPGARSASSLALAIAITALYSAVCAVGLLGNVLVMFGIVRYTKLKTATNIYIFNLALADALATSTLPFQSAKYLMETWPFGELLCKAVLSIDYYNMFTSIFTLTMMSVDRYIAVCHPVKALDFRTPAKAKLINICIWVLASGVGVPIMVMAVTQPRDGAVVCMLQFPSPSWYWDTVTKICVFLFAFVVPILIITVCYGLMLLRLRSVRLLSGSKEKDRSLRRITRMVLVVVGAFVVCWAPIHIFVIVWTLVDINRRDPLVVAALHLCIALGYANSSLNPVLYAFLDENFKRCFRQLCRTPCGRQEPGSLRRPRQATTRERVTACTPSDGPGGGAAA
T2 sequence (P35372 whole entry): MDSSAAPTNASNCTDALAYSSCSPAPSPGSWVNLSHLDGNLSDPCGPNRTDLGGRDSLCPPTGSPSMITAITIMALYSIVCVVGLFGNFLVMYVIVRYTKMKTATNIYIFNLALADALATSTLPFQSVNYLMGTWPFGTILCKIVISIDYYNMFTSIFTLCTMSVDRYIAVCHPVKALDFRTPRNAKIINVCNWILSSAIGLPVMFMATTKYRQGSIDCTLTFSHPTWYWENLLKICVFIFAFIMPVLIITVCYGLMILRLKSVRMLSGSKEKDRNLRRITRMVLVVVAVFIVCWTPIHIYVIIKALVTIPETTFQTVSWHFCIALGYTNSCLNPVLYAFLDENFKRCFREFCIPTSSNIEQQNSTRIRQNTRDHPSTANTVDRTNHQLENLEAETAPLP

| Compound | Papp at 150 min [1] [×10⁻⁶ cm/s] | locomotor effect (distance and speed of movement over 5 min) (mice) | DOP agonist (%) [2] [%] | DOP antagonist (%) [3] [%] | MOP agonist (%) [4] [%] | MOP antagonist (%) [5] [%] |
| --- | --- | --- | --- | --- | --- | --- |
| COCCc1ccc(OCC(O)CNC(C)C)cc1 (stereo not shown) [metoprolol, reference compound] | 13 | – | – | – | – | – |
| CN1CC[C@]23c4c5ccc(O)c4O[C@H]2[C@@H](O)C=C[C@H]3[C@H]1C5 [morphine, reference compound] | – | excitatory effect | – | – | – | – |
| TAPS c(3-3): backbone-cyclic TAPS analog, urea bridge; ring size 16 (YRF[NGly(3-aminopropyl)]-NH2; bridge 2-4 via CO; not fully specified (residue 2); also: urea bridge between the two N-alkyl chains) | – | – | 14 | 11 | 1 | 2 |
| TAPS c(6-6): backbone-cyclic TAPS analog, urea bridge; ring size 22 (YRF[N(6-aminohexyl)Gly]-NH2; bridge 2-4 via CO; not fully specified (residue 2); also: urea bridge between the two N-alkyl chains) | – | – | 1 | 6 | 21 | 3 |
